Experimental data: US20150337019A1 (MANUKAMED HOLDINGS LIMITED PARTNERSHIP, published 2015)

target: T1, Cathepsin B from bovine spleen (bovine, UniProt P07688 80-332); test: cell-based or functional assay

First: Ac-KISIHL-OH [Ac-KISIHL-OH]
Second: Ac-KISIHL-OH (also: MGO-modified, site not given here) [MGO-modified Ac-KISIHL-OH]
The “Cathepsin B inhibition test, 2 mM peptide” value (“Cathepsin B inhibition test” below) of the first is higher: 149 for the first, 73.2 for the second.

Going from Ac-PFKISIHL-OH (also: MGO-modified, site not given here) [MGO-modified Ac-PFKISIHL-OH] to Ac-PFKISIHL-OH [Ac-PFKISIHL-OH], the “Cathepsin B inhibition test” value rises from 28.1 to 144.

First: Ac-PFKI-OH (also: MGO-modified, site not given here) [MGO-modified Ac-PFKI-OH]
Second: Ac-KISI-OH (also: MGO-modified, site not given here) [MGO-modified Ac-KISI-OH]
The “Cathepsin B inhibition test” value of the first is lower: 91.5 for the first, 92.8 for the second.

Going from Ac-PFKI-OH [Ac-PFKI-OH] to Ac-KISI-OH [Ac-KISI-OH], the “Cathepsin B inhibition test” value falls from 152 to 133.

target: T1, Cathepsin B from bovine spleen; test: cell-based or functional assay; remark: another data set of the same source

Compared with Ac-SKLH-OH [Ac-SKLH-OH], Ac-SKLH-OH (also: MGO-modified, site not given here) [MGO-modified Ac-SKLH-OH] is lower in “Cathepsin B inhibition test” value: 146 for the first, 67.6 for the second.

First: Ac-SSKS-OH [Ac-SSKS-OH]
Second: Ac-HSSKLH-OH (also: MGO-modified, site not given here) [MGO-modified Ac-HSSKLH-OH]
The “Cathepsin B inhibition test” value of the first is higher: 119 for the first, 102 for the second.

Compared with Ac-HSSKLH-OH [Ac-HSSKLH-OH], Ac-SSKS-OH (also: MGO-modified, site not given here) [MGO-modified Ac-SSKS-OH] is lower in “Cathepsin B inhibition test” value: 122 for the first, 107 for the second.

In the case of Ac-HSSK-OH [Ac-HSSK-OH], the “Cathepsin B inhibition test” value is reported as 165.

target: T1, Cathepsin B from bovine spleen; test: cell-based or functional assay; remark: another data set of the same source

Compared with Ac-Lys-Asn-OH [Ac-KN-OH], Ac-NQKNNNQNDN-OH (also: MGO-modified, site not given here) [MGO-modified Ac-NQKNNNQNDN-OH] is lower in “Cathepsin B inhibition test” value: 150 for the first, 123 for the second.

Ac-NQKNNNQNDN-OH [Ac-NQKNNNQNDN-OH] was tested, and the “Cathepsin B inhibition test” value was 254.

target: T1, Cathepsin B from bovine spleen; test: cell-based or functional assay; remark: another data set of the same source

Compared with Ac-QNKHNN-OH (also: MGO-modified, site not given here) [MGO-modified Ac-QNKHNN-OH], Ac-QNKHNN-OH [Ac-QNKHNN-OH] is higher in “Cathepsin B inhibition test” value: 51.3 for the first, 168 for the second.

Compared with Ac-Lys-His-OH [Ac-KH-OH], Ac-KHNN-OH [Ac-KHNN-OH] is lower in “Cathepsin B inhibition test” value: 230 for the first, 129 for the second.

For Ac-QNKH-OH (also: MGO-modified, site not given here) [MGO-modified Ac-QNKH-OH], the “Cathepsin B inhibition test” value was 97.8.

target: T1, Cathepsin B from bovine spleen; test: cell-based or functional assay; remark: another data set of the same source

Compared with Ac-SSKSNN-OH [Ac-SSKSNN-OH], Ac-SSKSNNRH-OH (also: MGO-modified, site not given here) [MGO-modified Ac-SSKSNNRH-OH] is lower in “Cathepsin B inhibition test” value: 129 for the first, 102 for the second.

Going from Ac-SSKSNNRHNN-OH [Ac-SSKSNNRHNN-OH] to Ac-SSKSNNRHNNND-OH (also: MGO-modified, site not given here) [MGO-modified Ac-SSKSNNRHNNND-OH], the “Cathepsin B inhibition test” value falls from 131 to 110.

Going from Ac-SSKSNNRHNN-OH (also: MGO-modified, site not given here) [MGO-modified Ac-SSKSNNRHNN-OH] to Ac-SSKSNNRH-OH [Ac-SSKSNNRH-OH], the “Cathepsin B inhibition test” value rises from 104 to 125.

Going from Ac-SSKSNN-OH (also: MGO-modified, site not given here) [MGO-modified Ac-SSKSNN-OH] to Ac-SSKSNNRHNNND-OH [Ac-SSKSNNRHNNND-OH], the “Cathepsin B inhibition test” value rises from 107 to 164.
